Measured values: patent US20180117114A1 (INDIANA UNIVERSITY RESEARCH AND TECHNOLOGY COPORATION, published 2018)

Target: CRMP-2 from wild-type mouse brain lysate (mouse, UniProt O08553 1-572)
Test: SPOTS array of neurofibromin 15-mers overlaid with mouse brain lysate, probed with three CRMP-2 antibodies

| Binder | binding result |
| --- | --- |
| RVSHGQIKQIIRILS (15-mer on a SPOTS membrane) [SEQ ID NO: 1, neurofibromin C-terminus peptide RVSHGQIKQIIRILS] | binds |
| KGYRHPSPAIVARTV (15-mer on a SPOTS membrane) [SEQ ID NO: 2, neurofibromin C-terminus peptide KGYRHPSPAIVARTV] | binds |
| YLQSFGFNGLWRFAG (15-mer on a SPOTS membrane) [SEQ ID NO: 3, neurofibromin C-terminus peptide YLQSFGFNGLWRFAG] | binds |
